12 sequences from the DeepSol protein solubility set can be followed below.

This data set is described as follows: soluble on expression in E. coli; label from the status in PepcDB or PDB records.
For the sequence “MLASKMRWEIQRPDQDKVKSLTEQLHITPLVASLLVKRGFDTAESARLFLHTKDADFYDPFEMKGMKEAADRIKQAISQQEKIMIYGDYDADGVTSTSVMLHTLQKLSAQVDFYIPDRFKEGYGPNEQAFRSIKERGFSLIITVDTGIAAVHEAKVAKELGLDVIITDHHEPGPELPDVRAIVHPKQPGCTYPFKELAGVGVAFKLAHALLGELPDELLDLAAIGTIADLVPLHDENRLIATLGLERLRRTNRLGLKELIKLSGGDIGEANEETVGFQLAPRLNAVGRIEQADPAVHLLMSEDSFEAEELAAEIDQLNKERQKMVSKMTDEAIEMVEQQGLDQTAIVVAKAGWNPGVVGIVASKLVDRFYRPAIVLGIDEEKGIAKGSARSIRGFNLFESLSECRDILPHFGGHPMAAGMTLKAEDVPDLRSRLNEIADNTLTEEDFIPVQEVDLVCGVEDITVESIAEMNMLSPFGMLNPKPHVLVENAVLEDVRKIGANKTHVKMTIRNESSQLDCVGFNKGELQEGIVPGSRISIVGEMSINEWNNRKKPQLMIKDAAVSEWQLFDLRGKRTWEDTVSALPSAKRAIVSFKEDSTTLLQTEDLRREVHVISSKDQAKAFDLDGAYIVLLDPPPSLDMLARLLEGKAPERIYFIFLNHEDHFLSTFPARDHFKWYYAFLLKRGAFDVKKHGSELAKHKGWSVETINFMTKVFFDLGFVKIENGVLSVVSGAKKRDLTDSQTYQAKQQLMELDQKLNYSSAEELKEWLNKLMKQDSEAYESTRR”, the “soluble on expression in E. coli” value is given as “not soluble”. The same measure for “MNVIEVEDVSFRYGNSREYSLRHINLEIRKGEFLGIIGPSGSGKSTFCLTLNGLIPHSIAGEFHGNVIVDGLNTREHSVSELSTKVGLVFQNPDSQLFNMTVLEEVAFALENLGIERDEMWRRIRWALKLVRLWDKREEFPPNLSGGEKQRLAIASVLVMKPKVLVLDEPTSQLDPLGREEVLGLIKLLNKEEKITIILVEHNTDFLLEHADRIVVFDKGRIVLEGKPEDVFENVEFLRTIGVKLPTRVKIGYELKKRGLVERAVLTRDEVVEVLKWAYLRGKS”: “soluble”. The value for “MGSDKIHHHHHHMSKIGETPLDMGLKDAIIGIFIWNKEKGIFEPFENRLRKKARALLEYYTDLANDELKPYVISKTIIDNVVDEIKDKTLIPLPNEPLRVAFPNCTLEWKISHGRYVPSFVLAEERTPEHFAFHYIPHKIHLEELVKINEEVLSARDIPIDLIEDLARRLCPKSLEVFKQWANEKWVTLFEIIGYTLFPKIEFRKAFMILGPRGTGKSTFINLIKKLLGRGNVVNIPLHILFGDKNRFVLAELYHKLVNAVSETKEYNLDDMDTLKVLTGGDRITADVKFKDPITFTPYAKLVIASNKPPTIRDKNDMAFWHRWLIIEFPNQFEDNTAWGDKTFTEDELEGILTVSILAFSRVLLHGKFDFEQTEEEVRGIWLSTIDYVYKFVKEKLKHGEIMITKNADDYVRVKELYRMYLEYCSTNGYNATTYKGFVRRLRDYFNLTVVMKNVEGKRFRAVVGIKINTVQTNETTGGDYGEFLNYILKNNHMIKEFADLVRDFGSTEKANVFIDFCTKKNMCFSRGIDAWEISIQPRGFSFL” was “not soluble”. “MVLDIDMFRTEKGGNPEIIRKSQQDRFKDPKLVDEVIELDEKWRKERFVADQLNRQKNAISKAIGEKMKKKEPQGTDDSVADDIVARLAELKIDELSQLTVVQLKKLRVLVDEKSVQTAAAVIANENARHEKLIQIGNLIHSSVVVSKDEANNKIERTFGDLSTKKKYSHVDLVVMVDGFDGERGTVVAGGRGYFLKGPLVFLEQAIIQLALQRLNVKGYVPLYTPFFMRKEVMQEVAQLSQFDDELYKVSSKGSEIAGDTSVDEKYLIATSEQPIAAYHRNEWIKETELPIKYAGVSTCFRQEVGSHGRDTRGIFRVHQFEKIEQFVLCSPNDNESWTLFDEMIGNAESYYQELQIPYQVVNIVSGELNNAAAKKFDLEAWFPGSGAYRELVSCSNCLDYQSRRLKVRYGQTKKLSGEVPFVHMLNATMCATTRVICAILENNQTEEGINVPTAIQQWMPENYRTFIPFVKPAPIDEDAKKATGKK”: the “soluble on expression in E. coli” value is recorded as “not soluble”.

As for “MQLTAKASLTNALLISICTPDFKGDEATESLAELARLVTTLGFKVVGTQSQKQSSTKKVNVLGLGKLAEIAHLTGNQGEVEDMEEVEDLSVGEQTDDVEFMVNSSDIPSDNLPFACADVVVFDCDLSPSQLRNVENQLGVEVFDRTGIIIEIFSRHARTKTAKLQVEIARLNYVAPRLRETSCGDKERQMGKGAGETTLELNRRAVRDQLAELKRELVSVQHEMKGRRTQRSELFCVALVGYTNAGKSSMMRAITGSDVEGENKLFATLDTTVRALFPITQPRILVSDTVGFIKKLPHDLVASFHSTLAEAQDASLLLYVVDASDPSFRAQLDVVHEVLDEVGVEDSKKLLVLNKSDQLSIEQQQALMEEFPNAMMTSARNPADVSKLHKYIVGIAQEEMIEEEIIVPYTANGIIGEIRSRMSVTKEEYENSHIKLTVRSNAIDLARLKKRMLSLLEHHHHHH”, the “soluble on expression in E. coli” value is listed as “not soluble”. The value for “NEFELGTRGSSRVDLQEQRSVKTRVSLDDLFEQIKQGEMKELNLIVKADVQGSVEALVAALQKIDVEGVRVKIIHAAVGAITESDISLATASNAIVIGFNVRPDANAKRAAESEKVDIRLHRIIYNVIEEIEAAM” was “soluble”; that for “MSLGSRKKFGATYMTTNNRFYEIINDEIRSVVESNGDILVTRDAALDKNKQMQQIYEFIKLKVKAIFINPVDWKQIKPALIAAKNAGIPVIVVDTPVYDDKLVACTVISDNYDAGVQCAKYLMKSKSKANIMLIEHSKAKSGIDRIKGFVDTIGASKQYKIVAAGDSEGQLDKTMSLVDDLIKKHTNVDAIMALNDPSALGALAALKENGLLGKVMVFGVDGSPEAKTMIHDGFMTATSAQFPNKIGHIAAEKAYDILKGKRLKRDVIVPISLISKENLLKYEISGWKEGHHHHHH” was “soluble”; that for “KLKARSIKIQRRMDAILLRMPIFGDIVRKGTIARWGRTTATLIAAGVPLVDVLDSTAGAAGNLIYEEATREIRTRVIQGLSMTSGMRATELFPNMMLQMSSIGEESGSLDDMLNKAAEFYEDEVDNAVGRLSAMMEP” was “not soluble”. “TEETNVLVLCAGGGTSGLLANALNKAAEEYGAPVKAAAGSYGAHREILDQYQLVILAPQVASNYEDMKAETDKLGIKLAKTEGAQYIGLTRDGKGALAFVEEQFKD”: the “soluble on expression in E. coli” value is listed as “not soluble”. Take “MAHHHHHHMVGLRTRNVIDPIHGGVGRVIGGKGVSIDRNDGSIISDNEGENDRNGGDIPKAEGEEGRDAQDKGNAKVVMPIDEANQSNIANICSCDFTERLNFIPQEKTKVVCNLNPHHGEEVKIWVNKEYEVKCFQNSRVYCPSKDNIVNNTDITTYSPKLKYNISDVVHRDREVKEYHLQIDKDASDILLFCSIKPKQVSELLEGEVKINLKREISEEYSIPDEHGIHACNFSKGNLDISPSAGFYYKNDRSVSCIYLVIPNKLFLIKLPKLDIVTNQLLPSLVNCLSEHSFINFNLKHVEEGDESISLHLSFGDFKRTFNLSCAFDLSEYVIEPCLLGKKGIVTFYFNA”: the “soluble on expression in E. coli” value was “not soluble”. For “MTFQVILCYETVRQVAGLESELKANGFGQAQVLPNGTVPNRGSIVDLTNAISKLGVLRATAAGLAGTISRGGAVAIVPAHFGAGGKATEIMKKYNPIVDRPAAKPSAWDDAAPFSSLLRLPVITKSQPFKGHSGTPLIIEQEGAYRSNSGEPLVIKQTGGYRSMSGTPLLLDGGPYKSFSGTPLLIEQKDAYSSFSGTPLLVDSNTLFLTRA”, the “soluble on expression in E. coli” value is “not soluble”. The same measure for “RWYQRYLNPDRRHLAIDPYICGTVLTYSSDAPIGDSAPTTSCYMTGMPSNTGFVSTYPVSSGDADLIPVDKARAYSPLATFLEAAKIMKGKKTGLVVTCHFPHATPADCSAHSYSRKKYDWIAAQMVHQNLDVVLGGGTHYLHPELQSVLNSRGYGLFLDDLNGMRTYAGDRMWALFGKREMPYDLDRDTTQIPSLEEMTRLAIEKLNRSEEGFFLMVEGSKVDWAAHANDPVGIATEYLAFDRACAVAFDFARRDGQTAVIIVPDHGNSGVSIGKQSVKDYDKRSAKDLFDQLCRFRLTADGLAGRLADTPADKVQGLVSNICGFELDAKELEALYNCPDYNHSPIPKEQRRQTEESLYSGSLSTFIASLYTKHTSIGFTTHGHTAEEVLLAAYHPQDTRPMGMVINYELNDYLCRLFELGSQLPVLTDKIFAPHTEVFQGMSYSIKDGKKEGELPVLEVKKGSHRLLASPFSNTVIFNKKAIDLSSVVVYVDKTKTFYLPRELRSLFGE”: “not soluble”.
